In this test the target is Exportin-1 (XPO1), endogenous (UniProt O14980). Briefly: co-IP (GFP pulldown) and western blot, semi-quantification. The conditions noted are these: stable U2OS cell lines, parent: est. 0.60, read off a plot. In general terms: Immunoblotting shows a protein as a band on a membrane.
Sequence of UniProt O14980 (O14980 whole entry): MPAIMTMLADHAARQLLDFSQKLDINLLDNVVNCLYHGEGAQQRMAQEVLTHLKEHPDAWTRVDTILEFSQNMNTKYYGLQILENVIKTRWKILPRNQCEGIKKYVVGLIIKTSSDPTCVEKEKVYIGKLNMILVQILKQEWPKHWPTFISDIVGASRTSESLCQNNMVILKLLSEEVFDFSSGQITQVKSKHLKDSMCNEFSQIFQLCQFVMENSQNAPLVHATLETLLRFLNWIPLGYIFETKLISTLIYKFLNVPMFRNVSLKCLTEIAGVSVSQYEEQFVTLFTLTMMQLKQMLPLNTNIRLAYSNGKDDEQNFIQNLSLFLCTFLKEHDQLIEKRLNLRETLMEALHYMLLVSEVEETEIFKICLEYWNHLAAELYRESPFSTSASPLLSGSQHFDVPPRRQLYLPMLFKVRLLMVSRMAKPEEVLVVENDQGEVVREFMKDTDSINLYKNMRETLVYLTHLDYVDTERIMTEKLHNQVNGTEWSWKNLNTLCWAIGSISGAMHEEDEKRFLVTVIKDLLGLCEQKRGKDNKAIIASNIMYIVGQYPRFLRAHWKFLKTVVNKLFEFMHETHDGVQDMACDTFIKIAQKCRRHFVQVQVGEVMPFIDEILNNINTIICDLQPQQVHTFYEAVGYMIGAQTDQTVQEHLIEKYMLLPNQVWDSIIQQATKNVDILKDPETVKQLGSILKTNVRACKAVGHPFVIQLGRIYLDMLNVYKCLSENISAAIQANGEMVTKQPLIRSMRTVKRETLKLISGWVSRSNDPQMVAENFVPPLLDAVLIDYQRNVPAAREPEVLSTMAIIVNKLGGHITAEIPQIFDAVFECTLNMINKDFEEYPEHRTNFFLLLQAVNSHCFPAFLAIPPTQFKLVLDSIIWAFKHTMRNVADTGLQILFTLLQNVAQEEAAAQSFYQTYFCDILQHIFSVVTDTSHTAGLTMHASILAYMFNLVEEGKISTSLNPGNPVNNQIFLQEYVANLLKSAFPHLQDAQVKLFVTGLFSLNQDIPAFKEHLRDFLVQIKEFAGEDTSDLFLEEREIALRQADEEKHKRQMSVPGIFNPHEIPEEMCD
Regarding “TIRR-GFP WT (lentivirus-integrated, U2OS) (from UniProt Q9BRJ7) K10E”, the response (band intensity relative to WT -ETO) was 0.27.

“TIRR-GFP WT (lentivirus-integrated, U2OS) (from UniProt Q9BRJ7) NES1”: the response (band intensity relative to WT -ETO) worked out at 2.1. Consider “TIRR-GFP WT (lentivirus-integrated, U2OS) (from UniProt Q9BRJ7) NES2”, for which the response (band intensity relative to WT -ETO) was 0.3. “TIRR-GFP WT (lentivirus-integrated, U2OS) (from UniProt Q9BRJ7) NES3”: the response (band intensity relative to WT -ETO) came out at 3.2. With “TIRR-GFP WT (lentivirus-integrated, U2OS) (from UniProt Q9BRJ7) NES4” the figure was 1.3. With “TIRR-GFP WT (lentivirus-integrated, U2OS) (from UniProt Q9BRJ7) RBM” the figure was 0.9.
